Where a chain is given by its changes, count along the chain named. In names and notes the source's numbering stands.

Test [1] concerns the target T1, GST-Dbf4 (budding yeast, UniProt P32325 1-704).
T1 sequence (looked up): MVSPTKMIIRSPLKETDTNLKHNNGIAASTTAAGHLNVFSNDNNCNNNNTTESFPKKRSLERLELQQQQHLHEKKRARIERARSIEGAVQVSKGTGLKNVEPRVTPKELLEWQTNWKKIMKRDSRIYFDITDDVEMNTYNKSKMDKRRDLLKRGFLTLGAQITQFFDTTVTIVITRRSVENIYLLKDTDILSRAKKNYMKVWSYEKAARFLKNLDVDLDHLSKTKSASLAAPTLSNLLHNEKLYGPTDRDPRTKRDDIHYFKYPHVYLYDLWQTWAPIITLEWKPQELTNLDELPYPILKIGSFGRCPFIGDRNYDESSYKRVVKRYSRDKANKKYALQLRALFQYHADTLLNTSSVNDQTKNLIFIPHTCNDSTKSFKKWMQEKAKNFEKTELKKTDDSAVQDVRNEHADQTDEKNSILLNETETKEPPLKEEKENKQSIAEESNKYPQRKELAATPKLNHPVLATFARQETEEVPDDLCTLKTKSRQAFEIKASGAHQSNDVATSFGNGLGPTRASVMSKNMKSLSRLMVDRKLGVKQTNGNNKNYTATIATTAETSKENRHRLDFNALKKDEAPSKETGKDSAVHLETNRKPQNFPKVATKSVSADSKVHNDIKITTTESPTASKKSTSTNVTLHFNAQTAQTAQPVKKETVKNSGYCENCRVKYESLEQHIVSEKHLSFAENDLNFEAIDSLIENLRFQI
Description: pull-down.

Test [2] has as its target T2, GST-Cdc45 (budding yeast, UniProt Q08032 1-650).
T2 sequence (looked up): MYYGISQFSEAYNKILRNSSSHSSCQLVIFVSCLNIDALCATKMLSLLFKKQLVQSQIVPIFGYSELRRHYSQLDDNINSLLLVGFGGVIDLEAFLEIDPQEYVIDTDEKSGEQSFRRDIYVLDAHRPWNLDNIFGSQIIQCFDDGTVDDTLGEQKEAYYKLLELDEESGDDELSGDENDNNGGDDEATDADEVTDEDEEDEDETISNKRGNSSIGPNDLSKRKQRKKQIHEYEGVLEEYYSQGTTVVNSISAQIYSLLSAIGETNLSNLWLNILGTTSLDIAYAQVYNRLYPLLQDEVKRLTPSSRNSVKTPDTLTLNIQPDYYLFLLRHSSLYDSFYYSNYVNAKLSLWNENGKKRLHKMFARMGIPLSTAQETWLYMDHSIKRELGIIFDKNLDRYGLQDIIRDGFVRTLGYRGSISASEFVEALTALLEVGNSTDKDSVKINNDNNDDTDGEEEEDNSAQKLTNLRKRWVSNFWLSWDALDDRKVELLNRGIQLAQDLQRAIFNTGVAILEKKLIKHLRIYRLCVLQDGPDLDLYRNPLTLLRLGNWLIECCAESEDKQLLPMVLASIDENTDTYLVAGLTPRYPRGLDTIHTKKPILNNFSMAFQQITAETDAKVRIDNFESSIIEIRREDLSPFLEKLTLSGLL
Description: pull-down.

B1: PKA-Mcm10 (wild-type), radiolabeled (natural protein, Saccharomyces cerevisiae, UniProt P32354 1-571, looked up)
chain: MNDPREILAVDPYNNITSDEEDEQAIARELEFMERKRQALVERLKRKQEFKKPQDPNFEAIEVPQSPTKNRVKVGSHNATQQGTKFEGSNINEVRLSQLQQQPKPPASTTTYFMEKFQNAKKNEDKQIAKFESMMNARVHTFSTDEKKYVPIITNELESFSNLWVKKRYIPEDDLKRALHEIKILRLGKLFAKIRPPKFQEPEYANWATVGLISHKSDIKFTSSEKPVKFFMFTITDFQHTLDVYIFGKKGVERYYNLRLGDVIAILNPEVLPWRPSGRGNFIKSFNLRISHDFKCILEIGSSRDLGWCPIVNKKTHKKCGSPINISLHKCCDYHREVQFRGTSAKRIELNGGYALGAPTKVDSQPSLYKAKGENGFNIIKGTRKRLSEEEERLKKSSHNFTNSNSAKAFFDEKFQNPDMLANLDNKRRKIIETKKSTALSRELGKIMRRRESSGLEDKSVGERQKMKRTTESALQTGLIQRLGFDPTHGKISQVLKSSVSGSEPKNNLLGKKKTVINDLLHYKKEKVILAPSKNEWFKKRSHREEVWQKHFGSKETKETSDGSASDLEII
modifications: 32P label put on the PKA tag by protein kinase A with [gamma-32P]-ATP
Consider B1, for which the binding result in test [1] is given as “binds”.

B2: PKA-Mcm10-m2,3,4 (Mcm10-K216E-N313E-K314E), radiolabeled (natural protein, Saccharomyces cerevisiae, UniProt P32354 1-571, looked up)
chain: B1 chain with K216E, N313E, K314E
modifications: 32P label put on the PKA tag by protein kinase A with [gamma-32P]-ATP
As to B2, the binding result in test [1] and in test [2] was “binds” throughout.

Source of the values: article PMC5115986 (Journal of molecular biology, 2016).
